The results in this text go back to publication PMC10574445, “Label-Free Homogeneous Electrochemical Aptasensor Based on Size Exclusion/Charge-Selective Permeability of Nanochannel Arrays and 2D Nanorecognitive Probe for Sensitive Detection of Alpha-Fetoprotein”.

Conditions in all cases: protein: commercial
For one data set, the target named is T1, alpha-fetoprotein (AFP) (UniProt P02771 19-609).
T1 sequence: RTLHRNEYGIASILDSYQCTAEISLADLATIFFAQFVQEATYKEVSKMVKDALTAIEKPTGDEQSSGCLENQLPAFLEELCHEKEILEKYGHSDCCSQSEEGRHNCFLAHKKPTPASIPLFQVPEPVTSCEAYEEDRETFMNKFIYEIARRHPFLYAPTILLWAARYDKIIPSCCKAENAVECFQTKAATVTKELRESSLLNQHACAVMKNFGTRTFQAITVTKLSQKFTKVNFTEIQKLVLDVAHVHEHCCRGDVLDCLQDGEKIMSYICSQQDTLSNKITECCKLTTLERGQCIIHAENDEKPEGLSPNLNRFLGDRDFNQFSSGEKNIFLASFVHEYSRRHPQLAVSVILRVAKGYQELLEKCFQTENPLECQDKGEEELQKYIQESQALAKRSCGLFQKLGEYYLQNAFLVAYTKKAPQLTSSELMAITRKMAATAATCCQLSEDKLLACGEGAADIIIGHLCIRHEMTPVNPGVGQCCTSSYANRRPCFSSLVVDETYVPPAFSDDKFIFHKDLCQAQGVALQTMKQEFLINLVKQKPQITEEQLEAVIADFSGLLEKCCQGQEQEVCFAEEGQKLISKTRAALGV
Briefly: electrochemical aptasensor (DPV), aptamer release from graphene oxide; Ru(bpy)3 2+/Apt@GO probe; linear 1 pg/mL-1000 ng/mL, LOD 0.8 pg/mL (not a Kd); AFP incubated with Ru(bpy)3 2+/Apt@GO at 37 °C for 1 h, DPV on VMSF/ITO; buffer, salt and pH not given in the material.

Data set [1] has as its target neutrophil gelatinase-associated lipocalin (NGAL) (UniProt P80188 21-198). Description: electrochemical aptasensor (DPV), aptamer release from graphene oxide; Ru(bpy)3 2+/Apt@GO probe; no remarkable signal change; AFP incubated with Ru(bpy)3 2+/Apt@GO at 37 °C for 1 h, DPV on VMSF/ITO; buffer, salt and pH not given in the material.
Data set [2] concerns the target carcinoembryonic antigen (CEA) (UniProt P06731 35-685). Described as above.
The target of data set [3] is PSA (printed as preprostate antigen) (UniProt P07288 25-261). The data set is described as above.
Sequence of PSA (printed as preprostate antigen) (P07288 25-261): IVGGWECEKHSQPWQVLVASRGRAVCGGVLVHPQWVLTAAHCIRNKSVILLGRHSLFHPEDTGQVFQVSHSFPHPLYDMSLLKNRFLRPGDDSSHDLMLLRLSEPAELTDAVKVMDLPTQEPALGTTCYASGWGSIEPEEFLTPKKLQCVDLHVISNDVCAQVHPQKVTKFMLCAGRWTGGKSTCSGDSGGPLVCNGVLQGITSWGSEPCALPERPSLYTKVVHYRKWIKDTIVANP

Sequence of carcinoembryonic antigen (CEA) (P06731 35-685): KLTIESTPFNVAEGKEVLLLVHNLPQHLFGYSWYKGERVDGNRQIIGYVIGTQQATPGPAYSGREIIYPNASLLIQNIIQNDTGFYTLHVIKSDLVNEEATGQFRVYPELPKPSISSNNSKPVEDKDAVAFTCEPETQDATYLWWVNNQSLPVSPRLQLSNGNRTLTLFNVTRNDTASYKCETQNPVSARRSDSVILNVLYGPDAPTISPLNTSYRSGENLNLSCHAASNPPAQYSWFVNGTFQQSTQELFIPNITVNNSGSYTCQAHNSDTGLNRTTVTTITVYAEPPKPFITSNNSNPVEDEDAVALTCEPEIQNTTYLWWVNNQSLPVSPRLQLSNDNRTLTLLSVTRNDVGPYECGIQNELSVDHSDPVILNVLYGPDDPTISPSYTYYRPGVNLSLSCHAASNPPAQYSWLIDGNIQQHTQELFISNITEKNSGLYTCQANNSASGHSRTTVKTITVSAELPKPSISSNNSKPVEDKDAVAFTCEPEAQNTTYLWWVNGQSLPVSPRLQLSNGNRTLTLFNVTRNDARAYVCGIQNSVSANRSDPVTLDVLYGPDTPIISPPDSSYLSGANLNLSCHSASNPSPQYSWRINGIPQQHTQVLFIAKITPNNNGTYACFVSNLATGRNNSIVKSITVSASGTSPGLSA
Sequence of neutrophil gelatinase-associated lipocalin (NGAL) (P80188 21-198): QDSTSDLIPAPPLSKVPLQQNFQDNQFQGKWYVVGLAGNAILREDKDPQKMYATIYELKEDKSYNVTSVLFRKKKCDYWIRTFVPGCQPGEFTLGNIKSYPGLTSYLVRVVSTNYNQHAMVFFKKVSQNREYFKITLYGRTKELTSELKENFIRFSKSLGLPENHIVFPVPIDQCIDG

As for ATCAGGTGCAGTTCTCGACTCGGTCTTGATGTGGG (ssDNA) [AFP aptamer (Apt)], the binding result with alpha-fetoprotein (AFP) is “binds”; in data set [1], “no binding”; in data set [2] it was “no binding”; in data set [3], “no binding”.
